Holding throughout (test): scFv ELISA
In general terms: In an ELISA, binding on a coated surface is turned into a signal by an enzyme label.

Test [1] addresses Peptide 5: Biotin-…-[Tyr(PC)]-acid.
The target of test [2] is Peptide 1: Biotin-…-[Tyr(PC)]-acid.
Another test addresses BSA (UniProt P02769).
Test [3] deals with T1, Peptide 4: Biotin-AGGGGSGGGGSGGGGSAAA-Tyr-acid (N-terminal biotin; C-terminal acid).
T1 construct: Control peptide without PC
T1 peptide: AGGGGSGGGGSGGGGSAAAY
The method, boiled down: (§1)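 Bound scFv was read as OD450 after HRP–anti-V5 detection, TMB development and HCl stop. PPE with BSA was incubated 1 h at RT on BSA-blocked wells coated overnight at 4° C. with peptide, or on streptavidin wells loaded 1 h with biotinylated PC-peptides at 1 μg/mL.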

In test [4] the target is T2, Peptide 8: Biotin-AEAAAKEAAAKEAAAKEAAAKAAA-Tyr-acid (N-terminal biotin; C-terminal acid).
T2 construct: Control peptide without PC
T2 peptide: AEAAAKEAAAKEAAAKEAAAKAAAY
Summed up:
as §1

Among the data in patent US20250320312A1 (OXITOPE PHARMA B V, published 2025) are OD450 values, retold here.

BSA, sequence (P02769 25-607 limits assumed): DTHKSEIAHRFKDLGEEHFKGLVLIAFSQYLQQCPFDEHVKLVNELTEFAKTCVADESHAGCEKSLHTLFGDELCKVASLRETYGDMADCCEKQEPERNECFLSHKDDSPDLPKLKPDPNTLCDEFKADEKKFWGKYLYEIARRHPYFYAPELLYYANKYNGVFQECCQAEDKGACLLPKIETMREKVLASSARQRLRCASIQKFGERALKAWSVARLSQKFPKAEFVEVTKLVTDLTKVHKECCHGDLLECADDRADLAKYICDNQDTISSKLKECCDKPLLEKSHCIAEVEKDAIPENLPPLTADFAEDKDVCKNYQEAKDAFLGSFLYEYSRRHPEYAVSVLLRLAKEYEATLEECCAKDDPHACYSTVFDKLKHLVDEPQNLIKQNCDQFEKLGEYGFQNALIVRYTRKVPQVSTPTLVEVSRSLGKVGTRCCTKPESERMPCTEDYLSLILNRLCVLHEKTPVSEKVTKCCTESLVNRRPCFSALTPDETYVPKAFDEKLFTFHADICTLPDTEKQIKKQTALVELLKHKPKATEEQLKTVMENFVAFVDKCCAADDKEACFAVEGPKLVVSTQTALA

B1: PcOxP_DB03_B12 (scFv, V domains shown)
VH: EVQLLESGGGLVQPGGSLRLSCAASGFQFSDFYMEWVRQAPGKGLEWVAASRWKANDYTTEYADSVKGRFTISRDNSKNTLYLQMNSLRAEDTAVYYCARDYYGSSYWYFDVWGQGTLVTVSS
VL: DIVMTQSPDSLAVSLGERATINCTASESLYSSKHKVHYLAWYQQKPGQPPKLLIYGASNRYIGVPDRFSGSGSGTDFTLTISSLQAEDVAVYYCAQFYSYPLTFGGGTKVEIK
notes: scFv in periplasmic extract
In the case of B1, the OD450 in test [1] was determined as 0.85 OD450; in test [2], 1.21 OD450; in the test with BSA, 0.06 OD450; in test [3] it was 0.05 OD450; in test [4] it was 0.05 OD450.

B2: PcOxP_DB03_F02 (scFv, V domains shown)
VH: EVQLLESGGGLVQPGGSLRLSCAASGFTFSSYYMEWVRQAPGKGLEWVAASRNKANDYTTEYADSVKGRFTISRDNSKNTLYLQMNSLRAEDTAVYYCARDYYDSSYWYFDVWGQGTLVTVSS
VL: DIVMTQSPDSLAVSLGERATINCTSSESLLSSKHKVHYLAWYQQKPGQPPKLLIYGASNRYTGVPDRFSGSGSGTDFTLTISSLQAEDVAVYYCAQFYSYPLTFGGGTKVEIK
notes: scFv in periplasmic extract
Regarding B2, the OD450 is 1.68 OD450 in test [1]; 1.56 OD450 in test [2]; 0.07 OD450 with BSA; 0.05 OD450 in test [3]; 0.05 OD450 in test [4].

B3: PcOxP_DB03_C10 (scFv, V domains shown)
VH: EVQLLESGGGLVQPGGSLRLSCAASGFTFSSYYMEWVRQAPGKGLEWVAASRNKANEYTTEYADSVKGRFTISRDNSKNTLYLQMNSLRAEDTAVYYCARDYYGSSYWYFDVWGQGTLVTVSS
VL: DIVMTQSPDSLAVSLGERATINCTASESLYSSKHKVHYLAWYQQKPGQPPKLLIYGAGNRYIGVPDRFSGSGSGTDFTLTISSLQAEDVAVYYCAQFYSYPLTFGGGTKVEIK
notes: scFv in periplasmic extract
Regarding B3, the OD450 in test [1] stood at 1.1 OD450; in test [2], 1.1 OD450; with BSA, 0.07 OD450; in test [3], 0.05 OD450; in test [4] it was 0.04 OD450.

B4: PcOxP_DB03_E11 (scFv, V domains shown)
VH: EVQLLESGGGLVQPGGSLRLSCAASGFTFSDGYMEWVRQAPGKGLEWVAASRNKANDYTTEYADSVKGRFTISRDNSKNTLYLQMNSLRAEDTAVYYCARDYYGSSYWYFDVWGQGTLVTVSS
VL: DIVMTQSPDSLAVSLGERATINCKSSESLYSSKNKVHYLAWYQQKPGQPPKLLIYGASNRYIGVPDRFSGSGSGTDFTLTISSLQAEDVAVYYCAQFYHYPLTFGGGTKVEIK
notes: scFv in periplasmic extract
Consider B4, for which the OD450 in test [1] turned out to be 1.58 OD450; in test [2], 1.4 OD450; in the test with BSA, 0.07 OD450; in test [3] it was 0.05 OD450; in test [4], 0.04 OD450.

B5: PcOxP_DB03_E12 (scFv, V domains shown)
VH: EVQLLESGGGLVQPGGSLRLSCAASGETFSDFYMEWVRQAPGKGLEWVAASRNKWNDYTTEYADSVKGRFTISRDNSKNTLYLQMNSLRAEDTAVYYCARDYYGSSYWYFDVWGQGTLVTVSS
VL: DIVMTQSPDSLAVSLGERATINCTASESLYSSKHKVNYLAWYQQKPGQPPKLLIYGASNRYIGVPDRFSGSGSGTDFTLTISSLQAEDVAVYYCAQFYSYPLTFGGGTKVEIK
notes: scFv in periplasmic extract
For B5, the OD450 in test [1] turned out to be 0.88 OD450; in test [2], 0.57 OD450; in the test with BSA, 0.06 OD450; in test [3] it was 0.06 OD450; in test [4], 0.06 OD450.

B6: PcOxP_DB03_C01 (scFv, V domains shown)
VH: EVQLLESGGGLVQPGGSLRLSCAASGFTFSDFYMEWVRQAPGKGLEWVAASRNKANDYTTEVADSVKGRFTISRDNSKNTLYLQMNSLRAEDTAVYYCARDYYGSSNWYFDVWGQGTLVTVSS
VL: DIVMTQSPDSLAVSLGERATINCTASESLYSSKIKVHYLAWYQQKPGQPPKLLIYGAHNRYIGVPDRFSGSGSGTDFTLTISSLQAEDVAVYYCAQFYSYPLTFGGGTKVEIK
notes: scFv in periplasmic extract
On to B6, for which the OD450 in test [1] amounted to 1.47 OD450; in test [2] it was 0.84 OD450; with BSA, 0.08 OD450; in test [3], 0.05 OD450; in test [4] it was 0.05 OD450.

B7: PcOxP_DB03_D03 (scFv, V domains shown)
VH: EVQLLESGGGLVQPGGSLRLSCAASGFTFSDYYMEWVRQAPGKGLEWVAASRNKANDYTTEYADSVKGRFTISRDNSKNTLYLQMNSLRAEDTAVYYCARDYYFSSYWYFDVWGQGTLVTVSS
VL: DIVMTQSPDSLAVSLGERATINCTASESLYSSKHKVHYLAWYQQKPGQPPKLLIYGASNRYIGVPDRFSGSGSGTDFTLTISSLQAEDVAVYYCAQFYSYPLTFGGGTKVEIK
notes: scFv in periplasmic extract
As for B7, the OD450 in test [1] was 1.11 OD450; in test [2] it was 0.73 OD450; in the test with BSA, 0.1 OD450; in test [3] it was 0.04 OD450; in test [4], 0.04 OD450.

B8: PcOxP_DB03_F03 (scFv, V domains shown)
VH: EVQLLESGGGLVQPGGSLRLSCAASGFTFSDQYMEWVRQAPGKGLEWVAASRNKNNDYTTEYADSVKGRFTISRDNSKNTLYLQMNSLRAEDTAVYYCARDYYGASYWYFDVWGQGTLVTVSS
VL: DIVMTQSPDSLAVSLGERATINCTASQSVYSSKHKKHYLAWYQQKPGQPPKLLIYGANNRYIGVPDRFSGSGSGTDFTLTISSLQAEDVAVYYCGQFYSYPLTFGGGTKVEIK
notes: scFv in periplasmic extract
On to B8, for which the OD450 in test [1] was 1.93 OD450; in test [2], 1.13 OD450; in the test with BSA, 0.08 OD450; in test [3] it was 0.05 OD450; in test [4] it was 0.05 OD450.

B9: PcOxP_DB03_D10 (scFv, V domains shown)
VH: EVQLLESGGGLVQPGGSLRLSCAASGFTTSDFYMEWVRQAPGKGLEWVAASRNKANGYTTEYADSVKGRFTISRDNSKNTLYLQMNSLRAEDTAVYYCARDYYGSSYWYFDVWGQGTLVTVSS
VL: DIVMTQSPDSLAVSLGERATINCTASESLYSSKHKVHYLAWYQQKPGQPPKLLIYGASGRYIGVPDRFSGSGSGTDFTLTISSLQAEDVAVYYCAQFYSYPLTFGGGTKVEIK
notes: scFv in periplasmic extract
As for B9, the OD450 is 1.41 OD450 in test [1]; 1.19 OD450 in test [2]; 0.06 OD450 in the test with BSA; 0.05 OD450 in test [3]; 0.06 OD450 in test [4].

B10: PcOxP_DB03_D12 (scFv, V domains shown)
VH: EVQLLESGGGLVQPGGSLRLSCAASGFTNSDFYMEWVRQAPGKGLEWVAASRNKANDYTTELADSVKGRFTISRDNSKNTLYLQMNSLRAEDTAVYYCARDYYGSSYWYFDVWGQGTLVTVSS
VL: DIVMTQSPDSLAVSLGERATINCTASESLYSSKHKVHYLAWYQQKPGQPPKLLIYGASNRYIGVPDRFSGSGSGTDFTLTISSLQAEDVAVYYCAQFYSYPLTFGGGTKVEIK
notes: scFv in periplasmic extract
As for B10, the OD450 turned out to be 0.3 OD450 in test [1]; 0.2 OD450 in test [2]; 0.06 OD450 in the test with BSA; 0.04 OD450 in test [3]; 0.04 OD450 in test [4].

B11: PcOxP_DB03_E03 (scFv, V domains shown)
VH: EVQLLESGGGLVQPGGSLRLSCAASGFTESDFYMEWVRQAPGKGLEWVAASRNKANDYTTEYADSVKGRFTISRDNSKNTLYLQMNSLRAEDTAVYYCARDYYGSSYWYFDVWGQGTLVTVSS
VL: DIVMTQSPDSLAVSLGERATINCKSSQSLLYSKNNVNYLAWYQQKPGQPPKLLIYGESNRYIGVPDRFSGSGSGTDFTLTISSLQAEDVAVYYCAQFYEYPLTFGGGTKVEIK
notes: scFv in periplasmic extract
In the case of B11, the OD450 in test [1] worked out at 0.79 OD450; in test [2], 0.27 OD450; with BSA it was 0.05 OD450; in test [3], 0.04 OD450; in test [4], 0.04 OD450.

B12: PcOxP_DB03_E04 (scFv, V domains shown)
VH: EVQLLESGGGLVQPGGSLRLSCAASGFTFSSYYMEWVRQAPGKGLEWVAASRNKANDYTTEYADSVKGRFTISRDNSKNTLYLQMNSLRAEDTAVYYCARDYYGSSYWYFDVWGQGTLVTVSS
VL: DIVMTQSPDSLAVSLGERATINCTASESLYSSKHKVHYLAWYQQKPGQPPKLLIYGASNRYLGVPDRFSGSGSGTDFTLTISSLQAEDVAVYYCAQFYSYPLTFGGGTKVEIK
notes: scFv in periplasmic extract
Regarding B12, the OD450 amounted to 1.2 OD450 in test [1]; 0.96 OD450 in test [2]; 0.08 OD450 with BSA; 0.06 OD450 in test [3]; 0.04 OD450 in test [4].

B13: PcOxP_DB03_C08 (scFv, V domains shown)
VH: EVQLLESGGGLVQPGGSLRLSCAASGSTFSDFYMEWVRQAPGKGLEWVAASRNKANDFTTEYADSVKGRFTISRDNSKNTLYLQMNSLRAEDTAVYYCARDYYGSSYWYFDVWGQGTLVTVSS
VL: DIVMTQSPDSLAVSLGERATINCTASESLYSSKHKVHYLAWYQQKPGQPPKLLIYGASNRYSGVPDRFSGSGSGTDFTLTISSLQAEDVAVYYCAQFYHYPLTFGGGTKVEIK
notes: scFv in periplasmic extract
With B13, the OD450 in test [1] was determined as 0.9 OD450; in test [2], 0.98 OD450; with BSA it was 0.06 OD450; in test [3], 0.05 OD450; in test [4], 0.05 OD450.

B14: PcOxP_DB03_D02 (scFv, V domains shown)
VH: EVQLLESGGGLVQPGGSLRLSCAASGFTFSDYYMEWVRQAPGKGLEWVAASRNKANDYTTEYADSVKGRFTISRDNSKNTLYLQMNSLRAEDTAVYYCARDYYGSSYWYFDVWGQGTLVTVSS
VL: DIVMTQSPDSLAVSLGERATINCTASESLYSSKHKVHYLAWYQQKPGQPPKLLIYGATNRYIGVPDRFSGSGSGTDFTLTISSLQAEDVAVYYCAEFYSYPLTFGGGTKVEIK
notes: scFv in periplasmic extract
Turning to B14, the OD450 in test [1] is 1.37 OD450; in test [2], 0.67 OD450; with BSA it was 0.09 OD450; in test [3] it was 0.05 OD450; in test [4], 0.04 OD450.

B15: PcOxP_DB03_C04 (scFv, V domains shown)
VH: EVQLLESGGGLVQPGGSLRLSCAASGFTFSDFYMEWVRQAPGKGLEWVAASRNKANDYTTEYADSVKGRFTISRDNSKNTLYLQMNSLRAEDTAVYYCARDYYGSSYWYNDVWGQGTLVTVSS
VL: DIVMTQSPDSLAVSLGERATINCTASESLYSSKHKVHYLAWYQQKPGQPPKLLIYGASNRYIGVPDRFSGSGSGTDFTLTISSLQAEDVAVYYCAQFYTYPLTFGGGTKVEIK
notes: scFv in periplasmic extract
On to B15, for which the OD450 in test [1] came out at 1.72 OD450; in test [2], 2.11 OD450; with BSA it was 0.07 OD450; in test [3], 0.04 OD450; in test [4], 0.04 OD450.
